No end group written: not given here.
T1: peptide K44A (alanine variant of …) (human, not fully specified)
T1 construct: Position is counted on IL-18
T1 peptide: YFGKLESAC

T2: peptide L41A (alanine variant of …) (human, not fully specified)
T2 construct: Position is counted on IL-18
T2 peptide: YFGKAESKC

T3: peptide Y37A (alanine variant of …) (human, not fully specified)
T3 construct: Position is counted on IL-18
T3 peptide: AFGKLESKC

T4: neoepitope peptide (positions 37 to 44, C-terminal Cys) with positions 43 to 44 substituted with alanine (human, not fully specified)
T4 construct: Member of the successive alanine series, derived from the description of the series; Positions are counted on IL-18; also called peptide having the presence of lysine at position 40
T4 peptide: YFGKLEAAC

T5: neoepitope peptide (positions 37 to 44, C-terminal Cys) with positions 42 to 44 substituted with alanine (human, not fully specified)
T5 construct: Member of the successive alanine series, derived from the description of the series; Positions are counted on IL-18; also called peptide having the presence of lysine at position 40
T5 peptide: YFGKLAAAC

T6: peptide F38A (alanine variant of …) (human, not fully specified)
T6 construct: Position is counted on IL-18
T6 peptide: YAGKLESKC

T7: peptide S43A (alanine variant of …) (human, not fully specified)
T7 construct: Position is counted on IL-18
T7 peptide: YFGKLEAKC

T8: peptide G39A (alanine variant of …) (human, not fully specified)
T8 construct: Position is counted on IL-18
T8 peptide: YFAKLESKC

T9: neoepitope peptide IL-18^37-44 with C-terminal cysteine (YFGKLESKC) (human, not fully specified)
T9 construct: also called IL-18^37-44 peptide; wild-type peptide
T9 peptide: YFGKLESKC

T10: neoepitope peptide (positions 37 to 44, C-terminal Cys) with positions 41 to 44 substituted with alanine (human, not fully specified)
T10 construct: Member of the successive alanine series, derived from the description of the series; Positions are counted on IL-18; also called peptide having the presence of lysine at position 40
T10 peptide: YFGKAAAAC

T11: neoepitope peptide (positions 37 to 44, C-terminal Cys) with positions 40 to 44 substituted with alanine (human, not fully specified)
T11 peptide: YFGAAAAAC

T12: peptide E42A (alanine variant of …) (human, not fully specified)
T12 construct: Position is counted on IL-18
T12 peptide: YFGKLASKC

T13: activated IL-18 protein (IL-18^37-193) (human, UniProt Q14116 37-193)
T13 sequence (looked up): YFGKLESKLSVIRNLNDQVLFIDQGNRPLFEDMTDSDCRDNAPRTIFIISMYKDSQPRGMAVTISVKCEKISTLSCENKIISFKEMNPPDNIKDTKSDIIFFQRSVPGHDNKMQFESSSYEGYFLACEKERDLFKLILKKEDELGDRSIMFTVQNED

B1: monoclonal antibody 8-4.1 (antibody, V domains shown)
VH: LSITCTVSGFSLTSYGVHWVRQPPGKGLEWLGVIWAGGSTNYNSALMSRLSISKDNSKSQVFLKMNSLQTDDTAMYYCARESSYDAMDYWGQGTSVTVSS
VL: DIVITQSPKSMSMSVGERVTLTCKASENVVTYVSWYQQKPEQSPKLMIYGASNRYTGVPDRFTGSGSATDFTLTISSVQAEDLADYHCGQGYSYPYTFGGGTKLEIK
B2: monoclonal antibody 9-10.2 (antibody, V domains shown)
VH: SLTCSFSGFSLSSSGMGVGWIRQPSGKGLEWLAHIWWDDDKNYNPGLKSRLTISKDTSKNQVFLKIANVDTADAATYYCTRTRTYSNFGGGMAYWGQGTSVTVSS
VL: LGDQASISCRSSQSIAHSNGYTYLEWYLQTPGQSPKLLIYKVSNRFSGVPDRFSGSGSGTDFTLKISRVEAEDLGVYYCVQGSHVPLTFGAGTKLELK

Tests used:
[1] = molecular target: T1, peptide K44A (alanine variant of …); test: ELISA on BSA-crosslinked peptide, alanine scanning; row YFGKLESA
[2] = molecular target: T2, peptide L41A (alanine variant of …); test: ELISA on BSA-crosslinked peptide, alanine scanning; row YFGKAESK
[3] = molecular target: T3, peptide Y37A (alanine variant of …); test: ELISA on BSA-crosslinked peptide, alanine scanning; row AFGKLESK
[4] = molecular target: T4, neoepitope peptide (positions 37 to 44, …); test: ELISA on BSA-crosslinked peptide, neoepitope fine analysis; row YFGKLEAA
[5] = molecular target: T5, neoepitope peptide (positions 37 to 44, …); test: ELISA on BSA-crosslinked peptide, neoepitope fine analysis; row YFGKLAAA
[6] = molecular target: T1, peptide K44A (alanine variant of …); test: ELISA on BSA-crosslinked peptide, neoepitope fine analysis; row YFGKLESA
[7] = molecular target: T6, peptide F38A (alanine variant of …); test: ELISA on BSA-crosslinked peptide, alanine scanning; row YAGKLESK
[8] = molecular target: T7, peptide S43A (alanine variant of …); test: ELISA on BSA-crosslinked peptide (alanine scanning)
[9] = molecular target: T6, peptide F38A (alanine variant of …); test: as above
[10] = molecular target: T1, peptide K44A (alanine variant of …); test: as above
[11] = molecular target: T8, peptide G39A (alanine variant of …); test: ELISA on BSA-crosslinked peptide, alanine scanning; row [..]
[12] = molecular target: T7, peptide S43A (alanine variant of …); test: ELISA on BSA-crosslinked peptide, alanine scanning; row YFGKLEAK
[13] = molecular target: T9, neoepitope peptide IL-18^37-44 with …; test: ELISA on BSA-crosslinked peptide, neoepitope fine analysis; row YFGKLESK (reference set as 100)
[14] = molecular target: T5, neoepitope peptide (positions 37 to 44, …); test: ELISA on BSA-crosslinked peptide (neoepitope fine analysis)
[15] = molecular target: T10, neoepitope peptide (positions 37 to 44, …); test: as above
[16] = molecular target: T4, neoepitope peptide (positions 37 to 44, …); test: as above
[17] = molecular target: T10, neoepitope peptide (positions 37 to 44, …); test: ELISA on BSA-crosslinked peptide, neoepitope fine analysis; row YFGKAAAA
[18] = molecular target: T11, neoepitope peptide (positions 37 to 44, …); test: ELISA on BSA-crosslinked peptide, neoepitope fine analysis; row YFGAAAAA
[19] = molecular target: T9, neoepitope peptide IL-18^37-44 with …; test: ELISA on BSA-crosslinked peptide, alanine scanning; row YFGKLESK (reference set as 100)
[20] = molecular target: T12, peptide E42A (alanine variant of …); test: ELISA on BSA-crosslinked peptide, alanine scanning; row YFGKLASK
[21] = molecular target: T13, activated IL-18 protein (IL-18^37-193); test: cell-based or functional assay
[22] = molecular target: peptide K40A (alanine variant of …) (human, C-terminal Cys crosslinked to BSA in ELISA; thiol-coupled to sensor chip CM5 in SPR); test: ELISA on BSA-crosslinked peptide, alanine scanning; row YFGALESK
[23] = molecular target: T9, neoepitope peptide IL-18^37-44 with …; test: SPR, Biacore X100, peptide thiol-coupled to CM5, antibody 0.4-250 nM, single-cycle, bivalent analysis

Row | Binder | ELISA absorbance relative to wild-type peptide (= 100) [1] | ELISA absorbance relative to wild-type peptide (= 100) [2] | ELISA absorbance relative to wild-type peptide (= 100) [3] | ELISA absorbance relative to wild-type peptide (= 100) [4] | ELISA absorbance relative to wild-type peptide (= 100) [5] | ELISA absorbance relative to wild-type peptide (= 100) [6] | ELISA absorbance relative to wild-type peptide (= 100) [7] | percent binding relative to the wild-type peptide [8] [%] | percent binding relative to the wild-type peptide [9] [%] | percent binding relative to the wild-type peptide [10] [%] | ELISA absorbance relative to wild-type peptide (= 100) [11] | ELISA absorbance relative to wild-type peptide (= 100) [12] | ELISA absorbance relative to wild-type peptide (= 100) [13] | reactivity relative to the wild-type peptide [14] | reactivity relative to the wild-type peptide [15] | reactivity relative to the wild-type peptide [16] | ELISA absorbance relative to wild-type peptide (= 100) [17] | ELISA absorbance relative to wild-type peptide (= 100) [18] | ELISA absorbance relative to wild-type peptide (= 100) [19] | ELISA absorbance relative to wild-type peptide (= 100) [20] | also measured
1 | B1 | 67 | 33 | 0.8 | 56 | 23 | 27 | 44 | ~50 | ~50 | ~50 | 3.2 | 55 | 100 | ~0.25 fraction of wild-type peptide | ~0.25 fraction of wild-type peptide | ~0.25 fraction of wild-type peptide | 27 | 6 | 100 | 34 | IC50 (read off the curve) [21]: ~0.6 µg; ELISA absorbance relative to wild-type peptide (= 100) [22]: 1.8
2 | B2 | 39 | 14 | 0.3 | 27 | 13 | 44 | 50 | ~50 | ~50 | ~50 | 2.5 | 45 | 100 | ~0.25 fraction of wild-type peptide | ~0.25 fraction of wild-type peptide | ~0.25 fraction of wild-type peptide | 26 | 5 | 100 | 20 | Kd [23]: 0.19 nM; kon [23]: 210000 M⁻¹ s⁻¹; ELISA absorbance relative to wild-type peptide (= 100) [22]: 2.6

Source: patent US20210317200A1 (MABPROTEIN, published 2021)
